From patent publication US20260015420A1 (CENTESSA PHARMACEUTICALS UK, published 2026)
Where a chain is given by its changes, count along the chain named. Names may count otherwise. Where two headings read alike, the source gives them in different places.

Legend:
[1] = molecular target: T1, cynomolgus monkey CD47-Fc (cynomolgus monkey, UniProt Q08722 19-139 (human entry), limits assumed); test: direct ELISA, coated cyno CD47-Fc, OD450
T1 construct: also called cCD47; cyno CD47-Fc; not shown: Fc part
T1 chain: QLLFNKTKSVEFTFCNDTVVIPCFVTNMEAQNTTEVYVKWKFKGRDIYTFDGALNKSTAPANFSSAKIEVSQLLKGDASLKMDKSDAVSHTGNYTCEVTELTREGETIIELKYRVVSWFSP

[2] = molecular target: T2, human CD47-Fc (human, UniProt Q08722 19-139); test: direct ELISA, coated human CD47-Fc, OD450
T2 construct: also called hCD47; human CD47-Fc protein; not shown: Fc part

[3] = molecular target: T2, human CD47-Fc; test: HTRF competition with labelled h5F9G4 IgG1 (m11) for human CD47-Fc, 665/615 ratio
[4] = molecular target: T2, human CD47-Fc; test: HTRF epitope competition; competitor Tb-labelled h5F9G4 IgG1 on biotinylated human CD47-Fc
[5] = molecular target: T3, Cyno CD47 (Biacore steady state analysis) (cynomolgus monkey, UniProt Q08722 19-139 (human entry), limits assumed); test: Biacore SPR, steady state affinity, monomeric Fab
T3 construct: The construct on the Biacore chip is not described (possibly CD47-Fc)
T3 chain: T1 chain

[6] = molecular target: T2, human CD47-Fc; test: direct ELISA, coated human CD47-Fc, OD450; remark: listed apart in the source
[7] = molecular target: T4, cynomolgus monkey CD47 on cyno CD47-transfected CHO-K1 cells (cynomolgus monkey, UniProt Q08722 19-323 (human entry)); test: flow cytometry, CHO-K1 cells transfected with cyno CD47, MFI
T4 construct: CHO-K1 cells stably transfected with cyno CD47 full-length cDNA; also called cyno CD47+ cells; cyno CD47+CHO-K1
T4 chain: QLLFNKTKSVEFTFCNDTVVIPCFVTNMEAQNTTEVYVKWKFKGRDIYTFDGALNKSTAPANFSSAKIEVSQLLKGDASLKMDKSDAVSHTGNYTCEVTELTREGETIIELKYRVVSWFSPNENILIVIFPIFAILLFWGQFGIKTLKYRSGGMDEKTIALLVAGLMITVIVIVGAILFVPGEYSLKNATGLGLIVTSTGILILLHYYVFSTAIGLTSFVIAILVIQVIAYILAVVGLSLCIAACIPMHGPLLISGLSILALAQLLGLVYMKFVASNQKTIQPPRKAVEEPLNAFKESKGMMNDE

[8] = molecular target: T2, human CD47-Fc; test: competition ELISA: human CD47-Fc binding to plate-bound human SIRPa-Fc, % binding
[9] = molecular target: T2, human CD47-Fc; test: HTRF competition with labelled h5F9G4 IgG1 (m11) for human CD47-Fc, 665/615 ratio; remark: listed apart in the source

B1: F-E5, human IgG1null (antibody, V domains shown)
VH: EVQLVQSGAEVKKPGESLKISCKGSGYSFTNYNIHWVRQMPGKGLEWMGTIYPGNSDTSYNPKFQGQVTISADKSISTAYLQWSSLKASDTAMYYCARGGKRAMDYWGQGTLVTVSS
VL: DIVMTQSPLSLPVTPGEPASISCRSSQSLLHSNGNTYLGWYLQKPGQSPQLLIYKGSNRFSGVPDRFSGSGSGTDFTLKISRVEAEDVGVYYCMQASQVPYTFGQGTKLEIK
notes: framework limits derived from the Unified CDR definitions; IgG1null; also called Clone F-E5
binding result [1]: binds
EC50 (read off the curve) [2]: ~0.06 mg/L
IC50 (read off the curve) [3]: ~4 mg/L

B2: VH1.7/VL1.4, human IgG1null (antibody, V domains shown)
VH: QVQLVQSGAEVKKPGASVKVSCKASGYTFTNYNIHWVRQAPGQRLEWMGTIYPGNDDTSYSQKFQGRVTITADTSASTAYMELSSLRSEDTAVYYCARGGFRAMDYWGQGTLVTVSS
VL: B1 VL with G34A, N35Y, T36N, M94F
notes: VH assembled as for m35; IgG1null
IC50 [4]: 22.6 mg/L

B3: VH1.12/VL1.8, human IgG1null (antibody, V domains shown)
VH: B2 VH with N33A, I34M, D57N, S59K, S61N
VL: B1 VL with G34A, N35Y, T36N, Q98H
notes: IgG1null; also called VH1.12/VL8
IC50 [4]: 16.3 mg/L

B4: FAB VH1.8/1.6DI (Fab, V domains shown)
VH: B2 VH with N33A, I34M, S59K, S61N
VL: B1 VL with G34A, L52A, V88A, M94F, Q98H
notes: Fab expressed as soluble monomer; VL carries the two deimmunising alanine substitutions; also called VH1.8/VL1.6-DI Fab
Kd [5]: 0.0278 µM

B5: VH1.7/VL1.5, human IgG1null (antibody, V domains shown)
VH: B2 VH
VL: B1 VL with G34A, N35Y, T36N, M94F, Q98H
notes: VH assembled as for m35; IgG1null; also called Clone VH1.7/VL1.5
IC50 [4]: 9.53 mg/L

B6: VH1.8/VL1.4, human IgG1null (antibody, V domains shown)
VH: B2 VH with N33A, I34M, S59K, S61N
VL: B1 VL with G34A, N35Y, T36N, M94F
notes: IgG1null; also called Clone VH1.8/VL1.4
EC50 (read off the curve) [6]: ~0.06 mg/L
binding result [7]: binds
IC50 [4]: 2.94 mg/L
IC50 (read off the curve) [8]: ~2 mg/L

B7: VH1.8/VL1.5, human IgG1null (antibody, V domains shown)
VH: B2 VH with N33A, I34M, S59K, S61N
VL: B1 VL with G34A, N35Y, T36N, M94F, Q98H
notes: IgG1null; also called Clone VH1.8/VL1.5
EC50 (read off the curve) [6]: ~0.06 mg/L
binding result [7]: binds
IC50 [4]: 0.911 mg/L
IC50 (read off the curve) [8]: ~0.4 mg/L

B8: D6 IgG, human IgG1null (antibody, V domains shown)
VH: B1 VH with K63S, K101V
VL: B1 VL
notes: The text prints both D6 and D-A6 for what reads as the same clone; IgG1null; also called D-A6 IgG; Clone D6
binding result [1]: binds
EC50 (read off the curve) [2]: ~0.09 mg/L
IC50 (read off the curve) [9]: ~4 mg/L

B9: VH1.8/VL1.6, human IgG1null (antibody, V domains shown)
VH: B2 VH with N33A, I34M, S59K, S61N
VL: B1 VL with G34A, M94F, Q98H
notes: IgG1null; also called Clone VH1.8/VL1.6
EC50 (read off the curve) [6]: ~0.06 mg/L
binding result [7]: binds
IC50 [4]: 0.56 mg/L
IC50 (read off the curve) [8]: ~0.3 mg/L

B10: VH1.1/VL1.6, human IgG1null (antibody, V domains shown)
VH: B2 VH with N33A, I34M, S59K, S61N, F101Y, M104E
VL: B1 VL with G34A, M94F, Q98H
notes: cf. claim 50); IgG1null; also called Clone VH1.1/VL1.6
IC50 [4]: 6.96 mg/L

B11: VH1.8/VL1.1, human IgG1null (antibody, V domains shown)
VH: B2 VH with N33A, I34M, S59K, S61N
VL: B1 VL with M94F, Q98H
notes: IgG1null (L234A/L235A/G237A); also called Clone VH1.8/VL1.1
EC50 (read off the curve) [6]: ~0.06 mg/L
binding result [7]: binds
IC50 [4]: 0.459 mg/L

B12: VH1.8/VL1.2, human IgG1null (antibody, V domains shown)
VH: B2 VH with N33A, I34M, S59K, S61N
VL: B1 VL with M94F
notes: IgG1null; also called Clone VH1.8/VL1.2
EC50 (read off the curve) [6]: ~0.06 mg/L
binding result [7]: binds
IC50 [4]: 0.586 mg/L

B13: VH1.7/VL1.6, human IgG1null (antibody, V domains shown)
VH: B2 VH
VL: B1 VL with G34A, M94F, Q98H
notes: VH assembled as for m35; IgG1null; also called Clone VH1.7/VL1.6
IC50 [4]: 4.64 mg/L

B14: C-D5, human IgG1null (antibody, V domains shown)
VH: B1 VH with N55D, S59R, K101I
VL: B1 VL with G34Y, M94F, A96G, V99T
notes: IgG1null; also called Clone C-D5
binding result [1]: binds
binding result [2]: binds

B15: VH1.9/VL1.6, human IgG1null (antibody, V domains shown)
VH: B2 VH with N33A, I34M, S59K, F101Y, M104E
VL: B1 VL with G34A, M94F, Q98H
notes: IgG1null
IC50 [4]: 11.1 mg/L

B16: E-C5, human IgG1null (antibody, V domains shown)
VH: B1 VH with N55D, K101Y, M104Q
VL: B1 VL with Q98H
notes: IgG1null; also called Clone E-C5
binding result [1]: binds
binding result [2]: binds

B17: FAB VH1.8/1.1 (Fab, V domains shown)
VH: B2 VH with N33A, I34M, S59K, S61N
VL: B1 VL with M94F, Q98H
notes: Fab expressed as soluble monomer; also called VH1.8/VL1.1 Fab
Kd [5]: 0.0179 µM

B18: E-A1, human IgG1null (antibody, V domains shown)
VH: B1 VH with N55D, S59R, K101Y, M104E
VL: B1 VL with A96G, Q98H
notes: IgG1null; also called Clone E-A1
binding result [1]: binds
IC50 (read off the curve) [3]: ~1 mg/L

B19: B-A6, human IgG1null (antibody, V domains shown)
VH: B1 VH with N55D, S59R, P62Q, K101I
VL: B1 VL with M94F, A96G, Q98H, T102I
notes: IgG1null; also called Clone B-A6
binding result [1]: binds
binding result [2]: binds

B20: F-G3, human IgG1null (antibody, V domains shown)
VH: B1 VH with P62H, K101N, M104E
VL: B1 VL
notes: IgG1null; also called clone F-G3
binding result [1]: binds
binding result [2]: binds

B21: VH1.8/VL1.3, human IgG1null (antibody, V domains shown)
VH: B2 VH with N33A, I34M, S59K, S61N
VL: B1 VL with G34A, M94F
notes: IgG1null; also called Clone VH1.8/VL1.3
EC50 (read off the curve) [6]: ~0.06 mg/L
binding result [7]: binds
IC50 [4]: 0.928 mg/L
IC50 (read off the curve) [8]: ~0.4 mg/L

B22: VH1.6/VL1.6, human IgG1null (antibody, V domains shown)
VH: B2 VH with N33A, I34M, F101Y, M104E
VL: B1 VL with G34A, M94F, Q98H
notes: as for B2
IC50 [4]: 14 mg/L

B23: B-D2, human IgG1null (antibody, V domains shown)
VH: B1 VH with S59R, K63S, K101E
VL: B1 VL with M94F
notes: IgG1null; also called Clone B-D2
binding result [1]: binds
binding result [2]: binds

B24: FAB VH1.8/1.6 (Fab, V domains shown)
VH: B2 VH with N33A, I34M, S59K, S61N
VL: B1 VL with G34A, M94F, Q98H
notes: Fab expressed as soluble monomer; also called VH1.8/VL1.6 Fab
Kd [5]: 0.0259 µM

B25: A-H3, human IgG1null (antibody, V domains shown)
VH: B1 VH with K63S, K101V
VL: B1 VL with N33K
notes: IgG1null; also called Clone A-H3
binding result [1]: binds
binding result [2]: binds

B26: E-D6, human IgG1null (antibody, V domains shown)
VH: B1 VH with N55D, K101Y, M104E
VL: B1 VL with A96G, Q98H
notes: IgG1null; also called Clone E-D6
binding result [1]: binds
binding result [2]: binds

B27: D-C12, human IgG1null (antibody, V domains shown)
VH: B1 VH with S59R, K101F
VL: B1 VL with A96G, Q98H
notes: IgG1null; also called Clone D-C12
binding result [1]: binds
binding result [2]: binds
